Laboratory results published in PMC9897478.

Target: Desulfofustis deltaproteobacterium ligand-gated ion channel (DeCLIC) (Desulfofustis deltaproteobacterium)
Test: cryo-EM structure; DeCLIC in DDM detergent micelles, pH 7, two datasets: with 10 mM Ca2+ and Ca2+-free (chelated); C5 symmetry; homopentamer

- stoichiometry N: 5
Substance: Desulfofustis deltaproteobacterium ligand-gated ion channel (DeCLIC) (natural protein)
